The results in this text go back to the supplement of paper PMC11246515.

The data set can be described thus: total protein half-life in vivo (active degradation + dilution); higher = more stable protein.
Setting [1] is: E. coli NCM3722 delta-clpP delta-lon delta-hslV, growth: N-lim chemostat, doubling time 6 h.
Setting [2] is: E. coli NCM3722 delta-clpP, growth: N-lim chemostat, doubling time 6 h.
The mark [3] stands for this setting: E. coli NCM3722 delta-hslV, growth: N-lim chemostat, doubling time 6 h.
Where [4] appears, read: E. coli NCM3722 delta-lon, growth: N-lim chemostat, doubling time 6 h.
[5] abbreviates: E. coli NCM3722 delta-smpB, growth: N-lim chemostat, doubling time 6 h.
The mark [6] stands for this setting: wild type E. coli NCM3722, growth: C-lim chemostat, doubling time 3 h.
[7] abbreviates: wild type E. coli NCM3722, growth: C-lim chemostat, doubling time 6 h.
[8] abbreviates: wild type E. coli NCM3722, growth: C-lim chemostat, doubling time 12 h.
Where [9] appears, read: wild type E. coli NCM3722, growth: N-lim chemostat, doubling time 6 h.
The mark [10] stands for this setting: wild type E. coli NCM3722, growth: N-lim chemostat, doubling time 12 h.
The mark [11] stands for this setting: wild type E. coli NCM3722, growth: P-lim chemostat, doubling time 6 h.
Setting [12] is: wild type E. coli NCM3722, growth: P-lim chemostat, doubling time 12 h.

± gives the standard deviation of the averaged measurements.

As for “MQYPINEMFQTLQGEGYFTGVPAIFIRLQGCPVGCAWCDTKHTWEKLEDREVSLFSILAKTKESDKWGAASSEDLLAVIGRQGYTARHVVITGGEPCIHDLLPLTDLLEKNGFSCQIETSGTHEVRCTPNTWVTVSPKLNMRGGYEVLSQALERANEIKHPVGRVRDIEALDELLATLTDDKPRVIALQPISQKDDATRLCIETCIARNWRLSMQTHKYLNIA”, the “total protein half-life in vivo” value reads like this: under setting [1], 4.61 ± 0.46 h; under setting [2], 3.94 h; under setting [3], 3.81 ± 0.46 h; under setting [4], 4.5 ± 0.086 h; under setting [5], 3.79 ± 0.57 h; under setting [6], 2.309 ± 0.014 h. Besides, the “total protein half-life in vivo” value by setting is: under setting [7], 4.33 ± 0.17 h; under setting [8], 6.66 ± 0.86 h; under setting [9], 3.7 ± 0.29 h; under setting [10], 6.06 ± 0.13 h; under setting [11], 4.61 ± 0.56 h; under setting [12], 7.47 ± 0.8 h.
On to “MKKTTLALSALALSLGLALSPLSATAAETSSATTAQQMPSLAPMLEKVMPSVVSINVEGSTTVNTPRMPRNFQQFFGDDSPFCQEGSPFQSSPFCQGGQGGNGGGQQQKFMALGSGVIIDADKGYVVTNNHVVDNATVIKVQLSDGRKFDAKMVGKDPRSDIALIQIQNPKNLTAIKMADSDALRVGDYTVAIGNPFGLGETVTSGIVSALGRSGLNAENYENFIQTDAAINRGNSGGALVNLNGELIGINTAILAPDGGNIGIGFAIPSNMVKNLTSQMVEYGQVKRGELGIMGTELNSELAKAMKVDAQRGAFVSQVLPNSSAAKAGIKAGDVITSLNGKPISSFAALRAQVGTMPVGSKLTLGLLRDGKQVNVNLELQQSSQNQVDSSSIFNGIEGAEMSNKGKDQGVVVNNVKTGTPAAQIGLKKGDVIIGANQQAVKNIAELRKVLDSKPSVLALNIQRGDSTIYLLMQ [P0C0V0]”, for which the “total protein half-life in vivo” value reads like this: under setting [1], 5.66 ± 0.5 h; under setting [2], 5.71 ± 0.21 h; under setting [3], 6.05 ± 0.44 h; under setting [4], 5.85 ± 0.21 h; under setting [5], 5.87 ± 0.45 h; under setting [6], 2.97 ± 0.12 h. The “total protein half-life in vivo” value worked out at 5.88 ± 0.28 h under setting [7]; 10.9 ± 0.37 h under setting [8]; 5.86 ± 0.23 h under setting [9]; 11.5 ± 0.38 h under setting [10]; 5.75 ± 0.2 h under setting [11]; 11.4 ± 0.4 h under setting [12].
On to “MTLLASLRDWLKAQQLDAVLLSSRQNKQPHLGISTGSGYVVISRESAHILVDSRYYVEVEARAQGYQLHLLDATNTLTTIVNQIIADEQLQTLGFEGQQVSWETAHRWQSELNAKLVSATPDVLRQIKTPEEVEKIRLACGIADRGAEHIRRFIQAGMSEREIAAELEWFMRQQGAEKASFDTIVASGWRGALPHGKASDKIVAAGEFVTLDFGALYQGYCSDMTRTLLVNGEGVSAESHLLFNVYQIVLQAQLAAISAIRPGVRCQQVDDAARRVITEAGYGDYFGHNTGHAIGIEVHEDPRFSPRDTTTLQPGMLLTVEPGIYLPGQGGVRIEDVVLVTPQGAEVLYAMPKTVLLTGEA”, for which the “total protein half-life in vivo” value is, setting by setting: under setting [1], 6.04 h; under setting [8], 3.72 h.
As for “MPKLGMQSIRRRQLIDATLEAINEVGMHDATIAQIARRAGVSTGIISHYFRDKNGLLEATMRDITSQLRDAVLNRLHALPQGSAEQRLQAIVGGNFDETQVSSAAMKAWLAFWASSMHQPMLYRLQQVSSRRLLSNLVSEFRRELPREQAQEAGYGLAALIDGLWLRAALSGKPLDKTRANSLTRHFITQHLPTD”, the “total protein half-life in vivo” value is, setting by setting: under setting [1], 4.85 ± 0.33 h; under setting [2], 4.25 h; under setting [4], 4.46 h; under setting [9], 4.99 h.
Turning to “MNPIVINRLQRKLGYTFNHQELLQQALTHRSASSKHNERLEFLGDSILSYVIANALYHRFPRVDEGDMSRMRATLVRGNTLAELAREFELGECLRLGPGELKSGGFRRESILADTVEALIGGVFLDSDIQTVEKLILNWYQTRLDEISPGDKQKDPKTRLQEYLQGRHLPLPTYLVVQVRGEAHDQEFTIHCQVSGLSEPVVGTGSSRRKAEQAAAEQALKKLELE [P0A7Y0]”, the “total protein half-life in vivo” value was found to be 5.33 ± 0.47 h under setting [1]; 4.64 ± 0.1 h under setting [2]; 5.21 ± 0.87 h under setting [3]; 5.08 ± 0.24 h under setting [4]; 4.72 ± 0.15 h under setting [5]; 2.85 ± 0.21 h under setting [6]. Moreover, the “total protein half-life in vivo” value runs as follows: under setting [7], 5.54 ± 0.24 h; under setting [8], 8.37 ± 0.68 h; under setting [9], 4.85 ± 0.54 h; under setting [10], 7.78 ± 0.17 h; under setting [11], 5.51 ± 0.21 h; under setting [12], 11.4 ± 0.34 h.
As for “MDLRDLKTFLHLAESRHFGRSARAMHVSPSTLSRQIQRLEEDLGQPLFVRDNRTVTLTEAGEELRVFAQQTLLQYQQLRHTIDQQGPSLSGELHIFCSVTAAYSHLPPILDRFRAEHPSVEIKLTTGDAADAMEKVVTGEADLAIAGKPETLPGAVAFSMLENLAVVLIAPALPCPVRNQVSVEKPDWSTVPFIMADQGPVRRRIELWFRRNKISNPMIYATVGGHEAMVSMVALGCGVALLPEVVLENSPEPVRNRVMILERSDEKTPFELGVCAQKKRLHEPLIEAFWKILPNHK”, the “total protein half-life in vivo” value runs as follows: under setting [1], 6.95 ± 1.4 h; under setting [2], 6.14 ± 0.2 h; under setting [3], 5.87 ± 0.32 h; under setting [4], 6.22 ± 0.23 h; under setting [5], 6.35 ± 1.1 h; under setting [6], 2.78 ± 0.13 h. The “total protein half-life in vivo” value is, setting by setting: under setting [7], 5.47 ± 0.66 h; under setting [8], 11.4 ± 3.2 h; under setting [9], 5.9 ± 0.012 h; under setting [10], 10.9 ± 1.1 h; under setting [11], 5.48 ± 0.1 h; under setting [12], 11 ± 0.99 h.
As for “MYTLNWQPPYDWSWMLGFLAARAVSSVETVADSYYARSLAVGEYRGVVTAIPDIARHTLHINLSAGLEPVAAECLAKMSRLFDLQCNPQIVNGALGRLGAARPGLRLPGCVDAFEQGVRAILGQLVSVAMAAKLTARVAQLYGERLDDFPEYICFPTPQRLAAADPQALKALGMPLKRAEALIHLANAALEGTLPMTIPGDVEQAMKTLQTFPGIGRWTANYFALRGWQAKDVFLPDDYLIKQRFPGMTPAQIRRYAERWKPWRSYALLHIWYTEGWQPDEA”, the “total protein half-life in vivo” value was 6.48 h under setting [1]; 2.32 ± 0.17 h under setting [6]; 2.85 h under setting [7]; 4.47 h under setting [8]; 1.34 h under setting [9]; 1.62 h under setting [10]. Besides, under setting [11], the “total protein half-life in vivo” value worked out at 3.45 h.
